From US20200317768A1 (published 2020)
Numbering of substitutions follows the chain as printed. Names and notes keep the numbering of the source.

T1: human FcγRIIaH extracellular domain, His-tagged (human, UniProt P12318 34-217)
T1 construct: also called human FcγRIIa (type H); FcgRIIaH
T1 sequence: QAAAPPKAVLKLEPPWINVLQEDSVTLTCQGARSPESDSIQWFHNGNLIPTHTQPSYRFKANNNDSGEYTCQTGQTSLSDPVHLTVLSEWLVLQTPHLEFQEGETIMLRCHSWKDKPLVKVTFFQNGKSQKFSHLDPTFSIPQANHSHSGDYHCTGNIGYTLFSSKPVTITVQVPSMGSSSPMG

T2: cynomolgus monkey FcγRIIIaS extracellular domain, His-tagged (cynomolgus monkey, UniProt Q8SPW2 21-206 at identity 1.00))
T2 construct: also called cyno FcγRIIIaS; cynoFcγRIIIaS
T2 chain: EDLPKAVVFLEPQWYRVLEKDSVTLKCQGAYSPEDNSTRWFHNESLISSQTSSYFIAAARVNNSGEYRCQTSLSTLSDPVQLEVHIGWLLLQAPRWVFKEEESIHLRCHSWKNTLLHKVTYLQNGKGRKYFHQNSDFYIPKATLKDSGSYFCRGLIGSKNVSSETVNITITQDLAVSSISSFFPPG

T3: cynomolgus monkey FcγRIIa2 extracellular domain, His-tagged (cynomolgus monkey)
T3 construct: also called cyno FcγRIIa2; cynoFcgRIIa2
T3 chain: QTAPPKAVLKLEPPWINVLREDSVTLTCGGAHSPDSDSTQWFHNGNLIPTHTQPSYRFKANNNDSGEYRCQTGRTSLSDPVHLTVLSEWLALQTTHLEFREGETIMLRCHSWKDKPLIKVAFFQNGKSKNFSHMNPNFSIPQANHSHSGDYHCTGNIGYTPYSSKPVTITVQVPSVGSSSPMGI

T4: human FcγRIIaR extracellular domain, His-tagged (human, UniProt P12318 34-217)
T4 construct: also called human FcγRIIa (type R); FcgRIIaR
T4 chain: T1 sequence with H134R

T5: human FcγRIIb extracellular domain, His-tagged (human, UniProt P31994 43-217)
T5 construct: also called FcgRIIb (human)
T5 sequence: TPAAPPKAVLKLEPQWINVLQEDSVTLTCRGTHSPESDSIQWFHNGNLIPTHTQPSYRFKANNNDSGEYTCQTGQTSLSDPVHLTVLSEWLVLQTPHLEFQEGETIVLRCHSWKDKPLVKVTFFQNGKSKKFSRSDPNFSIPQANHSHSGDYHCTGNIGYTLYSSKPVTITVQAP

T6: cynomolgus monkey FcγRIIa1 extracellular domain, His-tagged (cynomolgus monkey)
T6 construct: also called cyno FcγRIIa1; cynoFcgRIIa1
T6 chain: T3 chain with T95P, A121T, K127I, S128A, N130K, N135D, Q142R

T7: cynomolgus monkey FcγRIIb extracellular domain, His-tagged (cynomolgus monkey)
T7 construct: also called cyno FcγRIIb; cynoFcγRIIb
T7 chain: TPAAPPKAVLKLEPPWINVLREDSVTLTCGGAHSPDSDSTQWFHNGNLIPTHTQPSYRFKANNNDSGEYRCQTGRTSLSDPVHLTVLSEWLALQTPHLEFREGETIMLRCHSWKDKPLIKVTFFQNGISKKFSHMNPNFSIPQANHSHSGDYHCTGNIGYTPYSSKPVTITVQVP

B1: MS_M103205H795-SG1/M103202L889-SK1 (antibody, human IgG1, kappa)
heavy: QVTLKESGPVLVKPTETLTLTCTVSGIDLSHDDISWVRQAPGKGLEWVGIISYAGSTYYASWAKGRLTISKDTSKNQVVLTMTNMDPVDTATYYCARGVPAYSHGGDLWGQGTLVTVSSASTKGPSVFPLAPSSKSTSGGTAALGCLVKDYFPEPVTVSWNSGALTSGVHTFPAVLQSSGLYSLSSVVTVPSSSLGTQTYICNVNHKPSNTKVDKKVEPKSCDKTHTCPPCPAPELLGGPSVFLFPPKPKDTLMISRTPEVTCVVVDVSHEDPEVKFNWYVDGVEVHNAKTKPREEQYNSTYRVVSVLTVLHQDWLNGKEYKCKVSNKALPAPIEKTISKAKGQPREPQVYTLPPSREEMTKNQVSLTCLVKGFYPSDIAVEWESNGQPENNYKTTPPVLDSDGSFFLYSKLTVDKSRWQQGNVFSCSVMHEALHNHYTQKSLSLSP
light: DIVMTQSPATLSLSPGERATLSCTSSQSVYHANWLSWFQQKPGQPPKLLIYWASTLAYGVPSRFSGSGSGTDFTLTISSLQPEDAATYYCAGGYGGGRYAFGQGTKVEIKRTVAAPSVFIFPPSDEQLKSGTASVVCLLNNFYPREAKVQWKVDNALQSGNSQESVTEQDSKDSTYSLSSTLTLSKADYEKHKVYACEVTHQGLSSPVTKSFNRGEC
notes: Parent antibody of the Fc variants; heavy chain constant region SG1, light chain M103202L889-SK1; also called MS1032LO06-SG1
B2: M103205H795-MY043/M103202L889-SK1 (antibody, human IgG1, kappa)
heavy: not shown
light: B1 light
notes: Substitution put into M103205H795-SG1
B3: M103205H795-MY044/M103202L889-SK1 (antibody, human IgG1, kappa)
heavy: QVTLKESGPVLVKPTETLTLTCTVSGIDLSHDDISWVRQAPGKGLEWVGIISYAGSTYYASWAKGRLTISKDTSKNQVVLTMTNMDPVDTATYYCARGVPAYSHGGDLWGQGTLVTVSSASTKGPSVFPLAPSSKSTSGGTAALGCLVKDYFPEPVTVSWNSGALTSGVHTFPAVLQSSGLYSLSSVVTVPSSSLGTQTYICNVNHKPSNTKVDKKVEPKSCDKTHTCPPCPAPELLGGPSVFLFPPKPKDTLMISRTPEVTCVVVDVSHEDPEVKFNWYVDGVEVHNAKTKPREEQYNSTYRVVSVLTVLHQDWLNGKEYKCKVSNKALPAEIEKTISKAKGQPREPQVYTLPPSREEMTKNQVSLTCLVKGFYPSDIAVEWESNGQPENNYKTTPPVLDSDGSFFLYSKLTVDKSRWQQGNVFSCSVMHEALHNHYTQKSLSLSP
light: B1 light
notes: as for B2
B4: M103205H795-MY048/M103202L889-SK1 (P271D) (antibody, human IgG1, kappa)
heavy: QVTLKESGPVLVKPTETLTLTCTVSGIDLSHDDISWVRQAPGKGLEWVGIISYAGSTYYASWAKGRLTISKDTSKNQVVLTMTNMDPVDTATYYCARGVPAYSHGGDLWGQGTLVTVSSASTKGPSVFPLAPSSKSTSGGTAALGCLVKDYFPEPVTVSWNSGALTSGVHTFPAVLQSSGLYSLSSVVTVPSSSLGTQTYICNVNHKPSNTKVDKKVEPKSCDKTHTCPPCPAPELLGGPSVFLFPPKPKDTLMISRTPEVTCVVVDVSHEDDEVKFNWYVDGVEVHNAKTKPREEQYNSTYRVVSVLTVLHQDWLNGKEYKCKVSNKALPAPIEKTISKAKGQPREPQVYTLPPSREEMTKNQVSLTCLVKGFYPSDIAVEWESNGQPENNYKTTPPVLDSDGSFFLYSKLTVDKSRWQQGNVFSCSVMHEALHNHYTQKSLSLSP
light: B1 light
notes: Here the P271D molecule is meant; Put into M103205H795-SG1
B5: M103205H795-MY010/M103202L889-SK1 (antibody, human IgG1, kappa)
heavy: not shown
light: B1 light
notes: as for B2
B6: M103205H795-MY041/M103202L889-SK1 (antibody, human IgG1, kappa)
heavy: not shown
light: B1 light
notes: as for B2
B7: M103205H795-MY045/M103202L889-SK1 (antibody, human IgG1, kappa)
heavy: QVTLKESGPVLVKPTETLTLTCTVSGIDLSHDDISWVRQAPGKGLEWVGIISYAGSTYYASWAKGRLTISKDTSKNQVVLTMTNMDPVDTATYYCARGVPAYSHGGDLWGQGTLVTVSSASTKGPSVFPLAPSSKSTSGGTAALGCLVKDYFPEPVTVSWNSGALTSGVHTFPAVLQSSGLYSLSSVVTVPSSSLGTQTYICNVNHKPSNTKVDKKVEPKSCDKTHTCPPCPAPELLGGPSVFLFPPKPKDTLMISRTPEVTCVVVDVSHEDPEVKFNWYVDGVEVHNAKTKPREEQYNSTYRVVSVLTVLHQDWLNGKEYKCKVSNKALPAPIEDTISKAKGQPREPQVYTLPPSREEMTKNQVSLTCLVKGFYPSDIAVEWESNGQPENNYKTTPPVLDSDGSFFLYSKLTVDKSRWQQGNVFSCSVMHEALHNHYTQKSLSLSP
light: B1 light
notes: as for B2
B8: M103205H795-MY064/M103202L889-SK1 (antibody, human IgG1, kappa)
heavy: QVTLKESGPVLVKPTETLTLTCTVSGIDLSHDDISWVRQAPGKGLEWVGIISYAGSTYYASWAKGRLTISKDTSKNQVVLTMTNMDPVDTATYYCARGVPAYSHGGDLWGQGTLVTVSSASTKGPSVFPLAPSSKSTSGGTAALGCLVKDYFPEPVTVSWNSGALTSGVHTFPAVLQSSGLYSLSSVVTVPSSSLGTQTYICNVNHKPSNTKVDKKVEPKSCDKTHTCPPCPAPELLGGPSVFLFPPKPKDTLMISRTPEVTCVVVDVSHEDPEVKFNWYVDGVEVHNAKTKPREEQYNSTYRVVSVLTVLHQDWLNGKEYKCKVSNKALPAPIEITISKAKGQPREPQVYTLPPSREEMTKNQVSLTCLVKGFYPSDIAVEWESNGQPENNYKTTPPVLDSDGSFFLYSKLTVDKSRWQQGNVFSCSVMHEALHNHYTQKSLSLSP
light: B1 light
notes: as for B2
B9: M103205H795-MY065/M103202L889-SK1 (antibody, human IgG1, kappa)
heavy: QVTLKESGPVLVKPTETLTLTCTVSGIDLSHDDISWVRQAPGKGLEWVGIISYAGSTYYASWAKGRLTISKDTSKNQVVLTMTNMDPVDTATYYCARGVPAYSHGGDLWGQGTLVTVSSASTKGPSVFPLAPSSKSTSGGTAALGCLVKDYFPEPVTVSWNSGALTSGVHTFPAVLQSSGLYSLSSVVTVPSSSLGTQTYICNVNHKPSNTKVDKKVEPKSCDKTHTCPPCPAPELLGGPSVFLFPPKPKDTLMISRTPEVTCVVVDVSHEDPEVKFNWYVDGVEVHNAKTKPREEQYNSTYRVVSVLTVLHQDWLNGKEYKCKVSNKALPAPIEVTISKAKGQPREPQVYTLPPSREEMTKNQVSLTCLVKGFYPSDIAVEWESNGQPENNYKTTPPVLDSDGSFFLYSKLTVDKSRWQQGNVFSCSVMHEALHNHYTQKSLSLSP
light: B1 light
notes: as for B2
B10: M103205H795-MY038/M103202L889-SK1 (antibody, human IgG1, kappa)
heavy: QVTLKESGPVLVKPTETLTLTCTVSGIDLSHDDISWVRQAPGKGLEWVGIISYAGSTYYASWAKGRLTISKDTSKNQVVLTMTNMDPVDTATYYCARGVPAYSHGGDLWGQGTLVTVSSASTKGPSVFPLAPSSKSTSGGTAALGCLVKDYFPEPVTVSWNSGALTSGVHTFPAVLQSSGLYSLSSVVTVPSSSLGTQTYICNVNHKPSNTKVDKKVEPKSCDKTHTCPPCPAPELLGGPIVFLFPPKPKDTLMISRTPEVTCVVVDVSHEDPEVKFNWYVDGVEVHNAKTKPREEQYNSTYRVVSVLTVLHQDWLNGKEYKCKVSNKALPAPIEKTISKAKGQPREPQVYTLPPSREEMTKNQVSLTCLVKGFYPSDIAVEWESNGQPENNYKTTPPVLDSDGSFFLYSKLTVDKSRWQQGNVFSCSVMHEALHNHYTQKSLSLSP
light: B1 light
notes: as for B2
B11: M103205H795-MY006/M103202L889-SK1 (antibody, human IgG1, kappa)
heavy: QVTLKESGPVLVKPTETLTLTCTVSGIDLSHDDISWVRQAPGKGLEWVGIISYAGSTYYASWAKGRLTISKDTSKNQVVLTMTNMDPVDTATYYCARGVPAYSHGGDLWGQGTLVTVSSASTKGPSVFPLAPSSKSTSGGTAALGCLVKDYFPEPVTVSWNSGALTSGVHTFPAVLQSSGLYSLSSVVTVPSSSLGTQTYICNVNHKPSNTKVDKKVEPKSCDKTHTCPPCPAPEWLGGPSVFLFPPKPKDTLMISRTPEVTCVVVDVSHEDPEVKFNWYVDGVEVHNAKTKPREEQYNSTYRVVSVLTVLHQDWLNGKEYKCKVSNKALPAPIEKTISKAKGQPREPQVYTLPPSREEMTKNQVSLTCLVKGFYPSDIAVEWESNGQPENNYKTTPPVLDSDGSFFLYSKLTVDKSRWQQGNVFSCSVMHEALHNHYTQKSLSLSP
light: B1 light
notes: as for B2
B12: M103205H795-MY008/M103202L889-SK1 (antibody, human IgG1, kappa)
heavy: not shown
light: B1 light
notes: as for B2
B13: M103205H795-MY069/M103202L889-SK1 (antibody, human IgG1, kappa)
heavy: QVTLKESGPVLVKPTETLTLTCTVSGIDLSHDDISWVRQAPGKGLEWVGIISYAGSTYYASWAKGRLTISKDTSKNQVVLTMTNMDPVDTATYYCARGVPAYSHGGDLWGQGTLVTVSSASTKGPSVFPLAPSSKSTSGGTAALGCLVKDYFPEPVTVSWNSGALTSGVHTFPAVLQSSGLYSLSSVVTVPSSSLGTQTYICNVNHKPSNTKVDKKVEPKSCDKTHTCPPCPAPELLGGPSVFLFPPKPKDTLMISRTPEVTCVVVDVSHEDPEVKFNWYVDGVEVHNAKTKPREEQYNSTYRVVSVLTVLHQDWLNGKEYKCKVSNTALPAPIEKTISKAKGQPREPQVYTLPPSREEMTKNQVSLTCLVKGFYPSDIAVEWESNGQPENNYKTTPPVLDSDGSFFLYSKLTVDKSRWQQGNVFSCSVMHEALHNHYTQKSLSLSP
light: B1 light
notes: as for B2
B14: M103205H795-MY014/M103202L889-SK1 (antibody, human IgG1, kappa)
heavy: not shown
light: B1 light
notes: as for B2
B15: M103205H795-MY068/M103202L889-SK1 (antibody, human IgG1, kappa)
heavy: not shown
light: B1 light
notes: as for B2
B16: M103205H795-MY037/M103202L889-SK1 (antibody, human IgG1, kappa)
heavy: not shown
light: B1 light
notes: as for B2
B17: M103205H795-MY013/M103202L889-SK1 (antibody, human IgG1, kappa)
heavy: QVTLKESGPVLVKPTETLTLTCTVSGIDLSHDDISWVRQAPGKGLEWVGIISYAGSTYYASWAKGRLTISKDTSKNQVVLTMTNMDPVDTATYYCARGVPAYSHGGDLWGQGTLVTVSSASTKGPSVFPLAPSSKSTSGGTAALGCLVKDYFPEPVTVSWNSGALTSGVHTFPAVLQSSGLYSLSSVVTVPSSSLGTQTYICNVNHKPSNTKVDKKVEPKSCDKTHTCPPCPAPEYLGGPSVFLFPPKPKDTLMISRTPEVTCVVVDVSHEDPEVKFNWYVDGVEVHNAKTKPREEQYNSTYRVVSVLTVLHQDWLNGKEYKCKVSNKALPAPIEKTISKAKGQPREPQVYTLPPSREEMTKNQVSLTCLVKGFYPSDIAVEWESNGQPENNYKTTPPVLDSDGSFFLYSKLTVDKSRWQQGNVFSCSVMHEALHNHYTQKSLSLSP
light: B1 light
notes: as for B2
B18: M103205H795-MY016/M103202L889-SK1 (antibody, human IgG1, kappa)
heavy: not shown
light: B1 light
notes: as for B2
B19: M103205H795-MY063/M103202L889-SK1 (antibody, human IgG1, kappa)
heavy: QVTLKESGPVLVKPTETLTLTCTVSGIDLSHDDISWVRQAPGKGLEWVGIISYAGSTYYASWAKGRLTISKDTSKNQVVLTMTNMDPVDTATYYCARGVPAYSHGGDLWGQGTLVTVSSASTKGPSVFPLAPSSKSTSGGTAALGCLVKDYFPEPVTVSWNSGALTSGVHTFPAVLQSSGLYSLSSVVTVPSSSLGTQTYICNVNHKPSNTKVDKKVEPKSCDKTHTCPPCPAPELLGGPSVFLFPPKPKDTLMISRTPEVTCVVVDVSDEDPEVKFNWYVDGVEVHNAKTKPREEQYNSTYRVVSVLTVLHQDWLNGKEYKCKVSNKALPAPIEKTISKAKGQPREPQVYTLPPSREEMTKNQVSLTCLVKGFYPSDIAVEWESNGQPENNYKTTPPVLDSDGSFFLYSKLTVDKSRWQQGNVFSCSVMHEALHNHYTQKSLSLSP
light: B1 light
notes: as for B2

target: T1, human FcγRIIaH extracellular domain, …; assay: SPR; KD of SG1 / KD of variant;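 note: relative to parent M103205H795-SG1 carrying the SG1 human heavy chain constant region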

Row | KD fold (SG1 = 1) | Binder
1 | 1 fold | B1
2 | 0.2 fold | B2
3 | 0.6 fold | B3
4 | 0.4 fold | B4
5 | 0.6 fold | B5
6 | 0.4 fold | B6
7 | 0.4 fold | B7
8 | 1.4 fold | B8
9 | 1.3 fold | B9
10 | 0.6 fold | B10
11 | 0.5 fold | B11
12 | 0.4 fold | B12
13 | 1.6 fold | B13
14 | 1.3 fold | B14
15 | 1.9 fold | B15
16 | 0.6 fold | B16
17 | 0.3 fold | B17
18 | 0.8 fold | B18
19 | 2.6 fold | B19

Target: T2, cynomolgus monkey FcγRIIIaS …
Assay: SPR, antibody captured, FcgR analyte

Row | Kd | Binder
20 | 360 nM | B1
21 | 840 nM | B2
22 | 470 nM | B3
23 | 370 nM | B4
24 | 220 nM | B5
25 | 260 nM | B6
26 | 140 nM | B7
27 | 120 nM | B8
28 | 110 nM | B9
29 | 310 nM | B10
30 | 320 nM | B11
31 | 370 nM | B12
32 | 86 nM | B13
33 | 400 nM | B14
34 | 580 nM | B15
35 | 200 nM | B16
36 | 330 nM | B17
37 | 230 nM | B18
38 | 67 nM | B19

Target: T3, cynomolgus monkey FcγRIIa2 …
Assay: SPR, antibody captured, FcgR analyte

Row | Kd | Binder
39 | 5100 nM | B1
40 | 61000 nM | B2
41 | 3500 nM | B3
42 | 11000 nM | B4
43 | 5000 nM | B5
44 | 4100 nM | B6
45 | 4000 nM | B7
46 | 2800 nM | B8
47 | 2800 nM | B9
48 | 4500 nM | B10
49 | 1500 nM | B11
50 | 3700 nM | B12
51 | 1600 nM | B13
52 | 2500 nM | B14
53 | 2700 nM | B15
54 | 4500 nM | B16
55 | 4700 nM | B17
56 | 3400 nM | B18
57 | 1500 nM | B19

Target: T4, human FcγRIIaR extracellular domain, …
Assay: SPR, antibody captured, FcgR analyte

Row | Kd | Binder
58 | 1100 nM | B1
59 | 1500 nM | B2
60 | 920 nM | B3
61 | 1200 nM | B4
62 | 1800 nM | B5
63 | 1200 nM | B6
64 | 1600 nM | B7
65 | 680 nM | B8
66 | 510 nM | B9
67 | 1500 nM | B10
68 | 1800 nM | B11
69 | 1800 nM | B12
70 | 390 nM | B13
71 | 960 nM | B14
72 | 520 nM | B15
73 | 910 nM | B16
74 | 5100 nM | B17
75 | 940 nM | B18
76 | 210 nM | B19

target: T5, human FcγRIIb extracellular domain, …; assay: SPR, antibody captured, FcgR analyte

Row | Kd | Binder
77 | 4600 nM | B1
78 | 3000 nM | B2
79 | 3300 nM | B3
80 | 3000 nM | B4
81 | 9100 nM | B5
82 | 3100 nM | B6
83 | 2900 nM | B7
84 | 2400 nM | B8
85 | 1900 nM | B9
86 | 2600 nM | B10
87 | 2300 nM | B11
88 | 2600 nM | B12
89 | 1600 nM | B13
90 | 4800 nM | B14
91 | 2100 nM | B15
92 | 2600 nM | B16
93 | 3700 nM | B17
94 | 2900 nM | B18
95 | 660 nM | B19

Target: T6, cynomolgus monkey FcγRIIa1 …
Assay: SPR, antibody captured, FcgR analyte

Row | Kd | Binder
96 | 3200 nM | B1
97 | 5800 nM | B2
98 | 3200 nM | B3
99 | 6600 nM | B4
100 | 3900 nM | B5
101 | 4000 nM | B6
102 | 5700 nM | B7
103 | 2400 nM | B8
104 | 2300 nM | B9
105 | 3900 nM | B10
106 | 2000 nM | B11
107 | 4200 nM | B12
108 | 1600 nM | B13
109 | 2500 nM | B14
110 | 2100 nM | B15
111 | 3800 nM | B16
112 | 4500 nM | B17
113 | 2900 nM | B18
114 | 1400 nM | B19

target: T8, human FcγRIIIaV extracellular domain, His-tagged (human, UniProt P08637 17-208); assay: SPR, antibody captured, FcgR analyte
T8 construct: also called FcgRIIIaV

Row | Kd | Binder
115 | 810 nM | B1
116 | 120 nM | B2
117 | 900 nM | B3
118 | 610 nM | B4
119 | 220 nM | B5
120 | 480 nM | B6
121 | 240 nM | B7
122 | 220 nM | B8
123 | 230 nM | B9
124 | 650 nM | B10
125 | 730 nM | B11
126 | 630 nM | B12
127 | 240 nM | B13
128 | 690 nM | B14
129 | 1400 nM | B15
130 | 370 nM | B16
131 | 410 nM | B17
132 | 370 nM | B18
133 | 160 nM | B19

Target: T7, cynomolgus monkey FcγRIIb extracellular …
Assay: SPR, antibody captured, FcgR analyte

Row | Kd | Binder
134 | 1800 nM | B1
135 | 4400 nM | B2
136 | 1600 nM | B3
137 | 3500 nM | B4
138 | 2000 nM | B5
139 | 3500 nM | B6
140 | 2200 nM | B7
141 | 1100 nM | B8
142 | 1300 nM | B9
143 | 1900 nM | B10
144 | 920 nM | B11
145 | 1700 nM | B12
146 | 730 nM | B13
147 | 1500 nM | B14
148 | 1000 nM | B15
149 | 2400 nM | B16
150 | 2000 nM | B17
151 | 1700 nM | B18
152 | 340 nM | B19

target: T1, human FcγRIIaH extracellular domain, …; assay: SPR, antibody captured, FcgR analyte

Row | Kd | Binder
153 | 690 nM | B1
154 | 2900 nM | B2
155 | 1200 nM | B3
156 | 1800 nM | B4
157 | 1200 nM | B5
158 | 1800 nM | B6
159 | 1600 nM | B7
160 | 500 nM | B8
161 | 520 nM | B9
162 | 1200 nM | B10
163 | 1300 nM | B11
164 | 1600 nM | B12
165 | 440 nM | B13
166 | 520 nM | B14
167 | 370 nM | B15
168 | 1100 nM | B16
169 | 2600 nM | B17
170 | 850 nM | B18
171 | 270 nM | B19
